Biological target: T1, B3GNT2 (Homo sapiens, UniProt Q9NY97)
T1 construct: The respective ORFs of candidate genes [CD274 (NM_014143), MCL1 (NM_021960), JUNB (NM_002229), and B3GNT2 (NM_006577)] were synthesized; expressed in transfected cells; host or cells: A375 melanoma cells (lentiviral ORF overexpression)
T1 sequence (Q9NY97 1-397): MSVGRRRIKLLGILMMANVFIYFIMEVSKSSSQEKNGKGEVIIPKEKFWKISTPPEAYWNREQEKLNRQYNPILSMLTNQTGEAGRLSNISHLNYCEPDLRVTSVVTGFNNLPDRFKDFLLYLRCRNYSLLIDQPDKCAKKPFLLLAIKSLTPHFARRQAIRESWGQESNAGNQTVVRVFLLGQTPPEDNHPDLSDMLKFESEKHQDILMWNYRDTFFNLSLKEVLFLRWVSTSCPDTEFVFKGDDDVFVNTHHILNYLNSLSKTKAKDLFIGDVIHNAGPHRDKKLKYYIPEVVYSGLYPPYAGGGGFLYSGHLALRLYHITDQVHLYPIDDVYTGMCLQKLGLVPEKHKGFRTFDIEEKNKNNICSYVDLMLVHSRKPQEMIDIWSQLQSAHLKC
Assay: Co-IP of FLAG-tagged B3GNT2 followed by mass spectrometry
Type: cell-based
Design: C-term IgG / C-term flag: unit not given here
Conditions: mass spectrometry count, unit not given; for C-term flag / N-term FLAG: Co-IP with FLAG antibody; for C-term flag / C-term IgG: C-terminally FLAG-tagged B3GNT2; for N-term FLAG / N-term IgG: N-terminally FLAG-tagged B3GNT2; for C-term IgG / N-term IgG: Co-IP with IgG control antibody
Method in brief: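 FLAG-tagged B3GNT2 immunoprecipitated from cell lysate (HEPES, 1% Triton X-100, 150 mM NaCl) with anti-FLAG versus […], overnight at 4° C, then captured on Protein A/G magnetic beads for 4 h. Two biological replicates per condition. Peptides fractionated and analyzed by nano-LC on an Orbitrap Elite in data-dependent mode.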

B1: OS9 (protein)
chain: GGVGSLNLEELSEMRYGIEILPLPVMGGQSQSSDVVIVSSKYKQRYECRLPAGAIHFQREREEETPAYQGPGIPELLSPMRDAPCLLKTKDWWTYEFCYGRHIQQYHMEDSEIKGEVLYLGYYQSAFDWDDETAKASKQHRLKRYHSQTYGNGSKCDLNGRPREAEVRFLCDEGAGISGDYIDRVDEPLSCSYVLTIRTPRLCPHPLLRPPPSAAPQAILCHPSLQPEEYMAYVQRQADSKQYGDKIIEELQDLGPQVWSETKSGVAPQKMAGASPTKDDSKDSDFWKMLNEPEDQAPGGEEVPAEEQDPSPEAADSASGAPNDFQNNVQVKVIRSPADLIRFIEELKGGTKKGKPNIGQEQPVDDAAEVPQREPEKERGDPERQREMEEEEDEDEDEDEDEDERQLLGEFEKELEGILLPSDRDRLRSETEKELDPDGLKKESERDRAMLALTSTLNKLIKRLEEKQSPELVKKHKKKRVVPKKPPPSPQPTEEDPEHRVRVRVTKLRLGGPNQDLTVLEMKRENPQLKQIEGLVKELLEREGLTAAGKIEIKIVRPWAEGTEEGARWLTDEDTRNLKEIFFNILVPGAEEAQKERQRQKELESNYRRVWGSPGGEGTGDLDEFDF
  C-term flag: 9
  N-term FLAG: 3
  C-term IgG: 0
  N-term IgG: 0

B2: TRIM28 (protein)
chain: AASAAAASAAAASAASGSPGPGEGSAGGEKRSTAPSAAASASASAAASSPAGGGAEALELLEHCGVCRERLRPEREPRLLPCLHSACSACLGPAAPAAANSSGDGGAAGDGTVVDCPVCKQQCFSKDIVENYFMRDSGSKAATDAQDANQCCTSCEDNAPATSYCVECSEPLCETCVEAHQRVKYTKDHTVRSTGPAKSRDGERTVYCNVHKHEPLVLFCESCDTLTCRDCQLNAHKDHQYQFLEDAVRNQRKLLASLVKRLGDKHATLQKSTKEVRSSIRQVSDVQKRVQVDVKMAILQIMKELNKRGRVLVNDAQKVTEGQQERLERQHWTMTKIQKHQEHILRFASWALESDNNTALLLSKKLIYFQLHRALKMIVDPVEPHGEMKFQWDLNAWTKSAEAFGKIVAERPGTNSTGPAPMAPPRAPGPLSKQGSGSSQPMEVQEGYGFGSGDDPYSSAEPHVSGVKRSRSGEGEVSGLMRKVPRVSLERLDLDLTADSQPPVFKVFPGSTTEDYNLIVIERGAAAAATGQPGTAPAGTPGAPPLAGMAIVKEEETEAAIGAPPTATEGPETKPVLMALAEGPGAEGPRLASPSGSTSSGLEVVAPEGTSAPGGGPGTLDDSATICRVCQKPGDLVMCNQCEFCFHLDCHLPALQDVPGEEWSCSLCHVLPDLKEEDGSLSLDGADSTGVVAKLSPANQRKCERVLLALFCHEPCRPLHQLATDSTFSLDQPGGTLDLTLIRARLQEKLSPPYSSPQEFAQDVGRMFKQFNKLTEDKADVQSIIGLQRFFETRMNEAFGDTKFSAVLVEPPPMSLPGAGLSSQELSGGPGDGP
  C-term flag: 8
  N-term FLAG: 4
  C-term IgG: 0
  N-term IgG: 0

B3: PGK1 (protein)
chain: SLSNKLTLDKLDVKGKRVVMRVDFNVPMKNNQITNNQRIKAAVPSIKFCLDNGAKSVVLMSHLGRPDGVPMPDKYSLEPVAVELKSLLGKDVLFLKDCVGPEVEKACANPAAGSVILLENLRFHVEEEGKGKDASGNKVKAEPAKIEAFRASLSKLGDVYVNDAFGTAHRAHSSMVGVNLPQKAGGFLMKKELNYFAKALESPERPFLAILGGAKVADKIQLINNMLDKVNEMIIGGGMAFTFLKVLNNMEIGTSLFDEEGAKIVKDLMSKAEKNGVKITLPVDFVTADKFDENAKTGQATVASGIPAGWMGLDCGPESSKKYAEAVTRAKQIVWNGPVGVFEWEAFARGTKALMDEVVKATSRGCITIIGGGDTATCCAKWNTEDKVSHVSTGGGASLELLEGKVLPGVDALSNI
  C-term flag: 2
  N-term FLAG: 0
  C-term IgG: 0
  N-term IgG: 0

B4: LOXL4 (protein)
chain: QSLGTTKLRLVGPESKPEEGRLEVLHQGQWGTVCDDNFAIQEATVACRQLGFEAALTWAHSAKYGQGEGPIWLDNVRCVGTESSLDQCGSNGWGVSDCSHSEDVGVICHPRRHRGYLSETVSNALGPQGRRLEEVRLKPILASAKQHSPVTEGAVEVKYEGHWRQVCDQGWTMNNSRVVCGMLGFPSEVPVDSHYYRKVWDLKMRDPKSRLKSLTNKNSFWIHQVTCLGTEPHMANCQVQVAPARGKLRPACPGGMHAVVSCVAGPHFRPPKTKPQRKGSWAEEPRVRLRSGAQVGEGRVEVLMNRQWGTVCDHRWNLISASVVCRQLGFGSAREALFGARLGQGLGPIHLSEVRCRGYERTLSDCPALEGSQNGCQHENDAAVRCNVPNMGFQNQVRLAGGRIPEEGLLEVQVEVNGVPRWGSVCSENWGLTEAMVACRQLGLGFAIHAYKETWFWSGTPRAQEVVMSGVRCSGTELALQQCQRHGPVHCSHGGGRFLAGVSCMDSAPDLVMNAQLVQETAYLEDRPLSQLYCAHEENCLSKSADHMDWPYGYRRLLRFSTQIYNLGRTDFRPKTGRDSWVWHQCHRHYHSIEVFTHYDLLTLNGSKVAEGHKASFCLEDTNCPTGLQRRYACANFGEQGVTVGCWDTYRHDIDCQWVDITDVGPGNYIFQVIVNPHYEVAESDFSNNMLQCRCKYDGHRVWLHNCHTGNSYPANAELSLEQEQRLRNNLI
  C-term flag: 8
  N-term FLAG: 5
  C-term IgG: 0
  N-term IgG: 0

B5: SMN1 (protein)
chain: AMSSGGSGGGVPEQEDSVLFRRGTGQSDDSDIWDDTALIKAYDKAVASFKHALKNGDICETSGKPKTTPKRKPAKKNKSQKKNTAASLQQWKVGDKCSAIWSEDGCIYPATIASIDFKRETCVVVYTGYGNREEQNLSDLLSPICEVANNIEQNAQENENESQVSTDESENSRSPGNKSDNIKPKSAPWNSFLPPPPPMPGPRLGPGKPGLKFNGPPPPPPPPPPHLLSCWLPPFPSGPPIIPPPPPICPDSLDDADALGSMLISWYMSGYHTGYYMEMLA
  C-term flag: 14
  N-term FLAG: 10
  C-term IgG: 2
  N-term IgG: 0

B6: DPM1 (protein, UniProt O60762 2-260, looked up)
Dolichol-phosphate …: ASLEVSRSPRRSRRELEVRSPRQNKYSVLLPTYNERENLPLIVWLLVKSFSESGINYEIIIIDDGSPDGTRDVAEQLEKIYGSDRILLRPREKKLGLGTAYIHGMKHATGNYIIIMDADLSHHPKFIPEFIRKQKEGNFDIVSGTRYKGNGGVYGWDLKRKIISRGANFLTQILLRPGASDLTGSFRLYRKEVLEKLIEKCVSKGYVFQMEMIVRARQLNYTIGEVPISFVDRVYGESKLGGNEIVSFLKGLLTLFATT
  C-term flag: 8
  N-term FLAG: 4
  C-term IgG: 0
  N-term IgG: 0

B7: GNAS (protein)
chain: MGVRNCLYGNNMSGQRDIPPEIGEQPEQPPLEAPGAAAPGAGPSPAEEMETEPPHNEPIPVENDGEACGPPEVSRPNFQVLNPAFREAGAHGSYSPPPEEAMPFEAEQPSLGGFWPTLEQPGFPSGVHAGLEAFGPALMEPGAFSGARPGLGGYSPPPEEAMPFEFDQPAQRGCSQLLLQVPDLAPGGPGAAGVPGAPPEEPQALRPAKAGSRGGYSPPPEETMPFELDGEGFGDDSPPPGLSRVIAQVDGSSQFAAVAASSAVRLTPAANAPPLWVPGAIGSPSQEAVRPPSNFTGSSPWMEISGPPFEIGSAPAGVDDTPVNMDSPPIALDGPPIKVSGAPDKRERAERPPVEEEAAEMEGAADAAEGGKVPSPGYGSPAAGAASADTAARAAPAAPADPDSGATPEDPDSGTAPADPDSGAFAADPDSGAAPAAPADPDSGAAPDAPADPDSGAAPDAPADPDAGAAPEAPAAPAAAETRAAHVAPAAPDAGAPTAPAASATRAAQVRRAASAAPASGARRKIHLRPPSPEIQAADPPTPRPTRASAWRGKSESSRGRRVYYDEGVASSDDDSSGDESDDGTSGCLRWFQHRRNRRRRKPQRNLLRNFLVQAFGGCFGRSESPQPKASRSLKVKKVPLAEKRRQMRKEALEKRAQKRAEKKRSKLIDKQLQDEKMGYMCTHRLLLLGAGESGKSTIVKQMRILHVNGFNGEGGEEDPQAARSNSDGEKATKVQDIKNNLKEAIETIVAAMSNLVPPVELANPENQFRVDYILSVMNVPDFDFPPEFYEHAKALWEDEGVRACYERSNEYQLIDCAQYFLDKIDVIKQADYVPSDQDLLRCRVLTSGIFETKFQVDKVNFHMFDVGGQRDERRKWIQCFNDVTAIIFVVASSSYNMVIREDNQTNRLQEALNLFKSIWNNRWLRTISVILFLNKQDLLAEKVLAGKSKIEDYFPEFARYTTPEDATPEPGEDPRVTRAKYFIRDEFLRISTASGDGRHYCYPHFTCAVDTENIRRVFNDCRDIIQRMHLRQYELL
  C-term flag: 2
  N-term FLAG: 0
  C-term IgG: 0
  N-term IgG: 0
